These results are taken from paper PMC6555819, “Comprehensive study of nuclear receptor DNA binding provides a revised framework for understanding receptor specificity”.

The labels stand for the following.
B1: NRC3_wobSeed141_DR5_G21C_o1 (dsDNA)
DNA 1: GCAGTCAAAGTTCAGGACGACGTAACGTAAAGCACGGCGATTGACAGCGTAGAATGAAGG
DNA 2: CCTTCATTCTACGCTGTCAATCGCCGTGCTTTACGTTACGTCGTCCTGAACTTTGACTGC
B2: NRC3_wobSeed18_DR0_A4T_o1 (dsDNA)
DNA 1: GCGTTACAGGGTCAAGGCCAGAGTACGCGTATTGATGCGATTGACAGCGTAGAATGAAGG
DNA 2: CCTTCATTCTACGCTGTCAATCGCATCAATACGCGTACTCTGGCCTTGACCCTGTAACGC
B3: NRC3_wobSeed134_DR5_G26T_o1 (dsDNA)
DNA 1: GCGCTGCTAGGTCAACTGATGGTCATCTAAAGCTCGGCGATTGACAGCGTAGAATGAAGG
DNA 2: CCTTCATTCTACGCTGTCAATCGCCGAGCTTTAGATGACCATCAGTTGACCTAGCAGCGC
B4: NRC3_wobSeed53_DR2_A22G_o1 (dsDNA)
DNA 1: GCCCTTACGGGTCACGAGGTTGTAGCACGACGAGCGGCGATTGACAGCGTAGAATGAAGG
DNA 2: CCTTCATTCTACGCTGTCAATCGCCGCTCGTCGTGCTACAACCTCGTGACCCGTAAGGGC
B5: NRC3_wobSeed2_DR0_T5G_o1 (dsDNA)
DNA 1: GCCCGAGTTGGTCAAGGTCACACACGCTATAGGTACGCGATTGACAGCGTAGAATGAAGG
DNA 2: CCTTCATTCTACGCTGTCAATCGCGTACCTATAGCGTGTGTGACCTTGACCAACTCGGGC
B6: NRC3_wobSeed2_DR0_C23T_o1 (dsDNA)
DNA 1: B5 DNA 1 with G5T, C23T
DNA 2: B5 DNA 2 with G38A, C56A
B7: NRC3_wobSeed2_DR0_A24C_o1 (dsDNA)
DNA 1: B5 DNA 1 with G5T, A24C
DNA 2: B5 DNA 2 with T37G, C56A
B8: NRC3_wobSeed75_DR3_G16A_o1 (dsDNA)
DNA 1: GCTCTCGGAGGACACAAAGGTCAGAGCTTTCCAGAGGCGATTGACAGCGTAGAATGAAGG
DNA 2: CCTTCATTCTACGCTGTCAATCGCCTCTGGAAAGCTCTGACCTTTGTGTCCTCCGAGAGC
B9: NRC3_wobSeed5_DR0_A25C_o1 (dsDNA)
DNA 1: GCCCTTACGGGTCAAGGTTATAGCCCGGGTGGTACGGCGATTGACAGCGTAGAATGAAGG
DNA 2: CCTTCATTCTACGCTGTCAATCGCCGTACCACCCGGGCTATAACCTTGACCCGTAAGGGC
B10: NRC3_wobSeed34_DR1_T23C_o1 (dsDNA)
DNA 1: GCATCGAAAGGTCGAAGGTGAGCATACCCACCCGAAGCGATTGACAGCGTAGAATGAAGG
DNA 2: CCTTCATTCTACGCTGTCAATCGCTTCGGGTGGGTATGCTCACCTTCGACCTTTCGATGC
B11: NRC3_wobSeed4_DR0_G11T_o1 (dsDNA)
DNA 1: GCCCTACTGGTCCAAGGTCATTGATCAGTCAAAGCAGCGATTGACAGCGTAGAATGAAGG
DNA 2: CCTTCATTCTACGCTGTCAATCGCTGCTTTGACTGATCAATGACCTTGGACCAGTAGGGC
B12: NRC3_wobSeed4_DR0_G11A_o1 (dsDNA)
DNA 1: B11 DNA 1 with T11A
DNA 2: B11 DNA 2 with A50T
B13: NRC3_wobSeed40_DR1_G5C_o1 (dsDNA)
DNA 1: GCTACCCTAGGTCATGGGCCAGTATACCACGCGAACGCGATTGACAGCGTAGAATGAAGG
DNA 2: CCTTCATTCTACGCTGTCAATCGCGTTCGCGTGGTATACTGGCCCATGACCTAGGGTAGC
B14: NRC3_wobSeed82_DR3_G17C_o1 (dsDNA)
DNA 1: GCATCGAAAGGTCGACCAGGTGAGTATACACCGTTTGCGATTGACAGCGTAGAATGAAGG
DNA 2: CCTTCATTCTACGCTGTCAATCGCAAACGGTGTATACTCACCTGGTCGACCTTTCGATGC
B15: NRC3_wobSeed135_DR5_G26A_o1 (dsDNA)
DNA 1: GCCGAACTAGGTCATTGACAGGACAATGAATAGTAAGCGATTGACAGCGTAGAATGAAGG
DNA 2: CCTTCATTCTACGCTGTCAATCGCTTACTATTCATTGTCCTGTCAATGACCTAGTTCGGC
B16: NRC3_wobSeed137_DR5_T27C_o1 (dsDNA)
DNA 1: GCATATGTAGGTTACATCCGGGTCATCCAGGCTATGGCGATTGACAGCGTAGAATGAAGG
DNA 2: CCTTCATTCTACGCTGTCAATCGCCATAGCCTGGATGACCCGGATGTAACCTACATATGC
B17: NRC3_wobSeed124_DR5_T26A_o1 (dsDNA)
DNA 1: GCCCTACTGGGCCATTCAGAGGTCAATGATCATATGGCGATTGACAGCGTAGAATGAAGG
DNA 2: CCTTCATTCTACGCTGTCAATCGCCATATGATCATTGACCTCTGAATGGCCCAGTAGGGC
B18: NRC3_wobSeed124_DR5_A14G_o1 (dsDNA)
DNA 1: B17 DNA 1 with A14G, A26T
DNA 2: B17 DNA 2 with T35A, T47C
B19: NRC3_wobSeed20_DR0_A17T_o1 (dsDNA)
DNA 1: GCAGAATGAGGTTAAGTTCAGGGAAACAGAATACATGCGATTGACAGCGTAGAATGAAGG
DNA 2: CCTTCATTCTACGCTGTCAATCGCATGTATTCTGTTTCCCTGAACTTAACCTCATTCTGC
B20: NRC3_wobSeed136_DR5_G26C_o1 (dsDNA)
DNA 1: GCTAGCCTAGGTCATTCAGGGGCCACTATAGAAAGCGCGATTGACAGCGTAGAATGAAGG
DNA 2: CCTTCATTCTACGCTGTCAATCGCGCTTTCTATAGTGGCCCCTGAATGACCTAGGCTAGC
B21: NRC3_wobSeed136_DR5_T27C_o1 (dsDNA)
DNA 1: B20 DNA 1 with C26G, T27C
DNA 2: B20 DNA 2 with A34G, G35C
B22: NRC3_wobSeed58_DR2_G21A_o1 (dsDNA)
DNA 1: GCATCGAAAGGTCGTGAGGTAAGTATACAGAAAGGCGCGATTGACAGCGTAGAATGAAGG
DNA 2: CCTTCATTCTACGCTGTCAATCGCGCCTTTCTGTATACTTACCTCACGACCTTTCGATGC
B23: NRC3_wobSeed123_DR5_G26T_o1 (dsDNA)
DNA 1: GCCCTCGGAGGACAACAGGAGGTCATAGCTGCCAGAGCGATTGACAGCGTAGAATGAAGG
DNA 2: CCTTCATTCTACGCTGTCAATCGCTCTGGCAGCTATGACCTCCTGTTGTCCTCCGAGGGC
B24: NRC3_wobSeed76_DR3_o1 (dsDNA)
DNA 1: GCCCTACTGGGCCAAAAAGGTCATTGATGCCGATAAGCGATTGACAGCGTAGAATGAAGG
DNA 2: CCTTCATTCTACGCTGTCAATCGCTTATCGGCATCAATGACCTTTTTGGCCCAGTAGGGC
B25: NRC3_wobSeed99_DR4_C13A_o1 (dsDNA)
DNA 1: GCTCTCGGAGGAAACGAAAGGTCAGAGCTCGACATCGCGATTGACAGCGTAGAATGAAGG
DNA 2: CCTTCATTCTACGCTGTCAATCGCGATGTCGAGCTCTGACCTTTCGTTTCCTCCGAGAGC
B26: NRC3_wobSeed61_DR2_A17G_o1 (dsDNA)
DNA 1: GCCGTCCAAGGTCAGCGGGTCAGTGAAAGCGACGTGGCGATTGACAGCGTAGAATGAAGG
DNA 2: CCTTCATTCTACGCTGTCAATCGCCACGTCGCTTTCACTGACCCGCTGACCTTGGACGGC
B27: NRC3_wobSeed27_DR1_G10T_o1 (dsDNA)
DNA 1: GCACTCGGATGACAAAGGTCAGAGCTACGCCAGTGAGCGATTGACAGCGTAGAATGAAGG
DNA 2: CCTTCATTCTACGCTGTCAATCGCTCACTGGCGTAGCTCTGACCTTTGTCATCCGAGTGC
B28: NRC3_wobSeed27_DR1_A23G_o1 (dsDNA)
DNA 1: B27 DNA 1 with T10G, A23G
DNA 2: B27 DNA 2 with T38C, A51C
B29: NRC3_wobSeed125_DR5_A30G_o1 (dsDNA)
DNA 1: GCCCTTACGGGTCACTGACAGGTTATAGCGTTTGGAGCGATTGACAGCGTAGAATGAAGG
DNA 2: CCTTCATTCTACGCTGTCAATCGCTCCAAACGCTATAACCTGTCAGTGACCCGTAAGGGC
B30: NRC3_wobSeed37_DR1_G10A_o1 (dsDNA)
DNA 1: GCCGTCCAAAGTCAAAGGTCAGTGAAGAGATGACGGGCGATTGACAGCGTAGAATGAAGG
DNA 2: CCTTCATTCTACGCTGTCAATCGCCCGTCATCTCTTCACTGACCTTTGACTTTGGACGGC
B31: NRC3_wobSeed133_DR5_G22A_o1 (dsDNA)
DNA 1: GCCGTCCAAGGTCAATGCTAGATCAGTGAAAGCATTGCGATTGACAGCGTAGAATGAAGG
DNA 2: CCTTCATTCTACGCTGTCAATCGCAATGCTTTCACTGATCTAGCATTGACCTTGGACGGC

Where a chain is given by its changes, count along the chain named.

LXRa:RXRa, sequence (Q13133 whole entry, chain 1 of 2): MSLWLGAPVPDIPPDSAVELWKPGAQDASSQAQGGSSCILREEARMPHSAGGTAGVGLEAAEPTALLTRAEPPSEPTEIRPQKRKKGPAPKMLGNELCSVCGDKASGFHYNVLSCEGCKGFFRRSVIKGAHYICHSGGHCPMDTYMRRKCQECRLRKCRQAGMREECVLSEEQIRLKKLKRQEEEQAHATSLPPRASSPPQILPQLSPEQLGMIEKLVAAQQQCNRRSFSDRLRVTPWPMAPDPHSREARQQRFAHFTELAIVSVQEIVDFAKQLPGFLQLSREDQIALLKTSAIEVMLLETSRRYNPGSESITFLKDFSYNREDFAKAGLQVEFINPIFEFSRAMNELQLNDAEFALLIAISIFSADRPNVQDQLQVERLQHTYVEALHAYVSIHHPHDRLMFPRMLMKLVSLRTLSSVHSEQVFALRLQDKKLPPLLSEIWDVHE
LXRa:RXRa, sequence (P19793 whole entry, chain 2 of 2): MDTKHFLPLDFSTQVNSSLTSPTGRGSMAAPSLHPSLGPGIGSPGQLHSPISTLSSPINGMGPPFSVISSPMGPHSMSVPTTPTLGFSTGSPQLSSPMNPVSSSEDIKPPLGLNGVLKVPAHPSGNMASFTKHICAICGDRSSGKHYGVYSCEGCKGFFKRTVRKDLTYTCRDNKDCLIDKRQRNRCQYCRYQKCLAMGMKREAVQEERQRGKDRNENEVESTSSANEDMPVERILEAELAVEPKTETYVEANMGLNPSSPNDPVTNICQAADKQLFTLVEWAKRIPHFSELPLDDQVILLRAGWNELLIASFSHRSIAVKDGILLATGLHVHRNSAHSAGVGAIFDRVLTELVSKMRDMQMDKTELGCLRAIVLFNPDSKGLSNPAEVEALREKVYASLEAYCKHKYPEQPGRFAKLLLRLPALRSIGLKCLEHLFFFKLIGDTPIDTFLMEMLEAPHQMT

The data set has as its target LXRa:RXRa (Homo sapiens, UniProt Q13133;P19793 full;full). As to the kind of experiment: no ligand; PBM; 270 nM : 90 nM RXRa; PBS pH 7.4, 2% milk, 0.02% Triton X-100, 1 mM DTT, BSA, 0.4 mg/ml salmon testes DNA. Conditions: tags: His kept;His cleaved; copies: 1;1; label: surface-attached array probe. The method, boiled down:
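The probes on custom Agilent 4×180K protein-binding microarrays were double-stranded, with 34-nt variable regions bearing direct-repeat seeds, single-nucleotide variants, half-site ablations and random human genomic background sequences. Incubation lasted 1 h with ligand-free nuclear receptor dimers in PBS pH 7.4, 2% milk, 0.02% Triton X-100, 1 mM DTT, 0.2 mg/mL BSA and 0.4 mg/ml salmon testes DNA. Antibodies against each partner (one per run) detected bound dimers, and fluorescence scans were regression-normalized. Binding z-scores take the random background probes as reference.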
For the molecule B1, the binding signal is 3.38 PBM z-score against 500 random probes.

For B2, the binding signal was 4.02 PBM z-score against 500 random probes.

Turning to B3, the binding signal is 3.56 PBM z-score against 500 random probes.

On to B4, for which the binding signal was 4.14 PBM z-score against 500 random probes.

As to B5, the binding signal was 3.9 PBM z-score against 500 random probes.

Consider B6, for which the binding signal was 3.72 PBM z-score against 500 random probes.

For the molecule B7, the binding signal was 3.48 PBM z-score against 500 random probes.

As for B8, the binding signal is 3.54 PBM z-score against 500 random probes.

Take B9: the binding signal is 3.64 PBM z-score against 500 random probes.

As for B10, the binding signal was 3.46 PBM z-score against 500 random probes.

As to B11, the binding signal was 3.7 PBM z-score against 500 random probes.

Take B12: the binding signal was 3.62 PBM z-score against 500 random probes.

B13: the binding signal was 6.6 PBM z-score against 500 random probes.

As to B14, the binding signal was 3.67 PBM z-score against 500 random probes.

Turning to B15, the binding signal is 3.59 PBM z-score against 500 random probes.

As for B16, the binding signal was 4.22 PBM z-score against 500 random probes.

As to B17, the binding signal was 3.77 PBM z-score against 500 random probes.

In the case of B18, the binding signal was 3.51 PBM z-score against 500 random probes.

Take B19: the binding signal was 3.43 PBM z-score against 500 random probes.

As to B20, the binding signal is 4.28 PBM z-score against 500 random probes.

Regarding B21, the binding signal was 3.99 PBM z-score against 500 random probes.

B22: the binding signal was 4.07 PBM z-score against 500 random probes.

In the case of B23, the binding signal was 3.93 PBM z-score against 500 random probes.

On to B24, for which the binding signal is 4.25 PBM z-score against 500 random probes.

For the molecule B25, the binding signal is 3.75 PBM z-score against 500 random probes.

Consider B26, for which the binding signal is 3.86 PBM z-score against 500 random probes.

With B27, the binding signal is 4.09 PBM z-score against 500 random probes.

In the case of B28, the binding signal is 4.04 PBM z-score against 500 random probes.

Turning to B29, the binding signal is 4.16 PBM z-score against 500 random probes.

For the molecule B30, the binding signal is 3.96 PBM z-score against 500 random probes.

For B31, the binding signal was 4.19 PBM z-score against 500 random probes.
